# Data published in the RNAGym collection of RNA variant scans (doi:10.7554/elife.80360).
# B1: HDV Ribozyme (parent)
# chain: GGCCGGCAUGGUCCCAGCCUCCUCGCUGGCGCCGGCUGGGCAACAUUCCGAGGGGACCGUCCCCUCGGUAAUGGCGAAUGGGACCCA
# Variants of: B1
# Experiment: self-cleavage, relative activity (ratio to wild type); higher = more cleavage; co-transcriptional
row,Variant,self-cleavage
1,A8U C24G,0.0405
2,G10A G40A,0.905
3,G10A G40U,0.566
4,U9G G54A,0.95
5,U9G G54C,0.831
6,U9G U65G,0.782
7,U9G G81U,0.437
8,U9C A51U,1.06
9,U9G G31U,0.554
10,U9G G31A,0.675
11,A8U G54C,0.538
12,U9G G53U,1.1
13,U9G G53A,1.03
14,U9G G67C,1.08
15,A8U G11C,0.0978
16,G10A U47G,0.853
17,A8U U47G,0.831
18,U9A A51C,0.923
19,G10C C63G,0.852
20,G10C C63A,0.88
21,U9A U69G,1.06
22,U9A A70G,0.918
23,U9A U47A,1.09
24,A8U G39U,0.571

row,Variant,self-cleavage
1,G10A A71U,0.712
2,U9C C66U,0.919
3,U9A C63A,1.25
4,G10A G34C,0.227
5,U9G G11A,0.346
6,U9G A56G,0.895
7,U9C G34A,0.208
8,U9C G34C,0.361
9,U9G G52C,0.95
10,U9G G52A,0.712
11,U9A C26U,1.12
12,G10A C63U,0.655
13,G10A A87G,0.857
14,U9C A83C,0.475
15,U9A G74A,0.491
16,U9A G59U,1.41
17,G10C G11U,0.185
18,U9G C66A,0.594
19,G10C A16U,1.49
20,U9C A43G,0.755
21,U9A G81A,0.396
22,U9A U23A,1.12
23,U9A U65C,1.07
24,U9G C14A,0.831

row,Variant,self-cleavage
1,U9G G34U,0.237
2,G10C C14G,0.312
3,G10C C24A,0.692
4,G10C C24U,0.646
5,U9G G17A,0.225
6,U9G C63A,0.935
7,G10A U65A,0.831
8,G10C A83G,0.578
9,G10A C41A,0.604
10,G10C A70G,0.516
11,U9C G29A,0.222
12,U9C U27G,0.914
13,U9G C32G,0.317
14,U9G G40A,1.29
15,U9G G40C,0.437
16,A8U C32A,0
17,A8U C32G,0.125
18,G10A G54A,0.591
19,U9C U60A,0.862
20,U9C U60C,1.11
21,U9C C64G,0.95
22,U9C U79C,0.499
23,U9C G67A,1.12
24,A8U G28A,0.0369

row,Variant,self-cleavage
1,G10C C30U,0.208
2,A8U C14A,0.192
3,G10A G39A,0.321
4,U9G C13A,0.831
5,U9G C64U,0.86
6,U9G C64A,0.831
7,A8U C85U,1.09
8,A8U C85G,0.883
9,A8U C85A,0.959
10,G10A G82C,0.231
11,U9G C49G,0.886
12,U9G U37C,1.37
13,U9C U46C,0.831
14,A8U C64G,0.856
15,G10A C64A,0.646
16,G10A C64G,0.749
17,U9C C30U,0.636
18,A8U G50A,0.739
19,U9A C22G,0.0519
20,G10A U20G,0.0791
21,U9C C84G,0.489
22,U9C C84A,0.65
23,G10C G59U,0.815
24,U9G A70G,0.831

row,Variant,self-cleavage
1,A8U U23A,0.804
2,U9C G73A,0.675
3,U9C G73C,0.291
4,A8U G55C,1.04
5,G10C G28U,0.148
6,G10C G28C,0.107
7,G10A C44U,0.463
8,G10A C44G,0.415
9,G10C G35U,0.374
10,G10A U27A,0.587
11,G10A U27G,0.98
12,G10C C26U,0.997
13,U9G C84U,0.831
14,U9G C44G,0.7
15,U9A G82C,0.332
16,A8U G25A,0
17,U9C A77G,1.05
18,U9C G50A,0.877
19,A8U G74A,0.115
20,A8U C66U,0.906
21,A8U C66G,0.8
22,U9A G11U,0.312
23,U9A G55A,1.09
24,G10A C85A,1.09

row,Variant,self-cleavage
1,G10A C85U,0.946
2,G10C C62U,0.989
3,G10C C62A,0.919
4,A8U A78C,0.128
5,U9G U47A,1.16
6,G10A C62G,0.456
7,U9G U60G,0.875
8,A8U A45G,0.489
9,A8U A45U,0.587
10,A8U U27G,0.906
11,U9C C62U,0.869
12,U9C C62A,1.14
13,A8U G35U,0.262
14,A8U A42C,0.0692
15,A8U U20G,0.166
16,U9C C26U,1.17
17,A8U U46G,0.604
18,G10C C18A,0.0906
19,G10C C18U,0.396
20,U9G A77U,0.604
21,U9C C15G,0.104
22,G10A A43G,0.217
23,G10A A43U,0.355
24,U9A U27A,0.9

row,Variant,self-cleavage
1,U9A U27C,0.795
2,U9A C32G,0.0489
3,U9G G28U,0.151
4,U9G C15G,0.739
5,U9G G59C,1.06
6,U9A C48G,1.31
7,G10A U12C,0.188
8,G10A A70G,0.801
9,G10A A70C,0.48
10,G10A C14A,0.205
11,G10A C14G,0.166
12,A8U G53C,1.01
13,U9G G50A,1.18
14,A8U C30G,0.0369
15,G10A C57U,0.797
16,G10A G17A,0.724
17,A8U U12C,0.227
18,U9C A70G,1.25
19,U9G A43C,0.415
20,U9G A43G,0.475
21,U9G C36G,0.115
22,G10C G39U,0.808
23,G10C G39A,0.259
